{
  "source": "paper PMC7042382",
  "about": "(2020)",
  "binders": {"B1": {"name": "A16.2 (TCR)", "alpha TRAV4 TRAJ20 CDR3": "CLVGGEDYKLSF", "beta TRBV4-3 TRBJ2-5 CDR3": "CASSQARGGAETQYF"}, "B2": {"name": "A16.1 (TCR)", "alpha TRAV4 TRAJ9 CDR3": "CLVGEVRGGFKTIF", "beta TRBV4-3 TRBJ2-5 CDR3": "CASSQARGGAETQYF"}},
  "target": "HIV-1 Gag protein peptide on HLA-B*57:01 (human)",
  "test": "multimer staining",
  "data": [
    {"binder": "B1", "values": [
      {"measurement": "binding result", "result": "recognises"}
    ]},
    {"binder": "B2", "values": [
      {"measurement": "binding result", "result": "recognises"}
    ]}
  ]
}
